# Experimental data from a protein production outcome set (Wang et al. 2014).
# Assay: label from the status in PepcDB records
row,Sequence,protein production
1,MTEVRPGAVASASLWERDAEIAALVEAVDALRADSPSSGSGSLLVFSGEAGIGKTALLGETRRIAESRGCTVWSARGGETVTSVPFNVVRQLLQPALVALMPDEAREYLGDWYDIAGPALGITEPGDRQADPQGVCDGLVAAVRRLARREWPLVLLIDDAHWADQETLHWLAAFAERLHDLSVLVVVARRPGEATEESTRHLDVIAAAAGPVATLSALTPEATAGLTRATVGVHADAPFCREVWAVTGGNPYETVELLAKVQDSELEPSESSAAELRALNRSARGRGLVARLEGLGIDATRFAWAAAILGTGISLDLAAQLAGMQREEALHCADLLGAARILTEPAPVNGRQPDGDLEFVHPLIASAVYNSIPDALRTAMHGVAAQVVTDSGLGAAAASRHLLEVHPDDDAELVDQMREAAREHLAVGAPDAARRCLERALLEPPLSDVHARVLYELGCATLLTSPATTIDYLQAALAMPGLDGDVRVDAVFRLSQALLHNNQVEEAVRTVDAEAARLEPGPARMRLQAVHYMWECVHAGEDISPTSVRALAELAKKCTGKDNSERALLILRGFDAMTRGENAEEVAELCDRALVNGRLAPGLGWTDTEWGIELLMMLASAYAYADRLDRAEALYNEALRAYEGAGWSGGHLALAHSYVGLGHRRRGRLTEAEKYLRESLRIAERVGRGLPLYWSATCGLVDTLLARGHVEEAAEIAERYGFGPPYPTTIVLPDTRSVRGRLLLALGRTEEGVNELEAAEKAATARGHHNTVLAPWALDLARALAVDDPRRAAELAATARRQAERFGTDTAIGEALRCAAALETGQRAASLYKQAVTYLEASPCSYEHAAARVEYGIATRSATELTRGLTLARSCGADGLVAQAQEALDNGPGLR,failed
2,MPKQTGNARNPFVLLALFILVCSGGCATYPISHDKAVPVARGALFEYPYFHDQVTGIAVSGQGRIFVNFPRWDKDPLYSVAEVLPDGSLRPYPDHGWNRWGADETAHPEAHFICVQSVFVDHSDFLWILDPASPAFNGVVPGGAKLVKVNLKTDQVERVIPFAPSAAPHESYLNDVRIDPEGNFAFITDSGKGAIVVVDLESGKARRLLSGHPSTKAEPGYVPVIEGKELRNEDGTVPKIHADGIALDSRGEYLYYHALVGRTLYRIRTSFLKDPSLPEKDLENHVERIAETGAADGMLMDAQDNLYLTALEENAVKRYRPSEPTLNTIIQGGLHWPDSLAISPDNYLYVTDSQINLAPRFNHGKDLRIIPYKFFKTWLMPFSHDGLLPP,failed
3,MVKLGCSFSGKPGKEAGDQDGAAMDSVPLISPLDVSQLQPSFSDQVVINTQTEYQLTSADQPKKFADLEGQRLACSHSEEGRRLPTARMIAFAMALLGCVLIMYKAIWYDQFTCPDGFLLRHKICTPLTLEMYYTEMDPERHRSILAAIGAYPLSRKHGTEMPAVWGNNYRTAKEEHKGTTPAAMAVSTAAAAAAAEGTEPSGKSLDTREKEDPQKAEGVPSQPPK,failed
4,MASLEVSRSPRRSRRELEVRSPRQNKYSVLLPTYNERENLPLIVWLLVKSFSESGINYEIIIIDDGSPDGTRDVAEQLEKIYGSDRILLRPREKKLGLGTAYIHGMKHATGNYIIIMDADLSHHPKFIPEFIRKQKEGNFDIVSGTRYKGNGGVYGWDLKRKIISRGANFLTQILLRPGASDLTGSFRLYRKEVLEKLIEKCVSKGYVFQMEMIVRARQLNYTIGEVPISFVDRVYGESKLGGNEIVSFLKGLLTLFATT,failed
5,KEALEALVPVTIEVEVPFDLHRYVIGQKGSGIRKMMDEFEVNIHVPAPELQSDIIAITGLAANLDRAKAGLLERVKELQAEQEDRALRSFK,not failed
6,MSKREDEGCARKRRTEAGQRSEDCMNPNSVVISAFKVFQQELDTRYDKYERLVKISRDVTIESKRTIFLLHRVASVPDVEEILNEAEVKLDGVRQKIGQIAEELRGEDLHQFHRAFTPGIQEYVEAVSFHHFIRHRSLISLEEINARLVFIRDNNKAVGEGTFSSPCVLTFQITPTDYLLGVADLTGELMRMCISSVGNGDMDTPFQLSGFLRQIHDGFSLIGNTGPYEVSKKLHALRQSLGKVEDACYTLRVRGSEIPKHMLADVFSSRAAHIDPDDAMA,not failed
7,MRKHSDCMNFCAVDATKGICRLSKQMINLDDAACPEIKVMPKCKNCKNFVEANDEGIGKCVGLEKEDWVYSTLNAITCEGHVFNE,failed
8,MAYATGITFASRSILPICSRTFLSPLRVASLLVFPEKSSATFFRRVQVPHLFSTSTTTLFSSVKCSIHSTSSPETENQAVFRPNVVDILEERGLLESITSENLRSACSDPKVAPLRVYCGFDPTAESLHLGNLLGIIVLSWFQRCGHQAVGLIGGATGRVGDPSGKSLERPELDADTLEKNIAGITKIIIKILGSNPSPGGSYVIFNNYDWWKDMTMLDFLNKVGRFARVGTMMAKESVKKRLESEQGMSYTEFTYQLLQAYDFLHLFKNEGINVQIGGSDQWGNITAGTDLIRKILQAEEAAYGLTFPLLLKNDGTKFGKSEDGAIWLSPSMLSPYKFYQYFFSVPDVDVIRFLKTLTFLSLDEIKILEDQMSKPGYVPNTAQIKLAEEVTRFVHGEEGLKEAIKATEALRPGAETKLDWNLIERIAEDIPSCSLPIDRVSGLSIVDLSVSAGLFESKSAARRMLKQGGFYMNNERVDDENKRVDEEDIVEGRGLVLSAGKKNKVVVRIS,failed
9,MRADTRDFRALFLGDAPLLDTRAPVEFAKGAFPGAVNLPLMSDAERHKVGLCYKQQGQDAAIALGHRLVSGAVKAERVAAWAAFAQAHPEGYLYCFRGGLRSQISQAWLREEAGIAYPRVIGGYKAMRGFLLETIEQAIAEC,failed
10,DETYYTVDLEQKLEEKFGLEEAIVVATHDMSEEEALNFLAKEAAYTLSKRIAKVNTLGISWGKTIRKFANEFPYIPHKDLTIIPLIGGMGSSDIDLHSNQICYDLKKKMQCHSKYLYAPALVEDTEMKADLSKNKYINEVLEEGKTVDMAIVGVSSPYNQSTMEEIGYITPEDIEELRYKDVVGDINSRFFTANGEEANTQINTHVIGLSLEELKKIPTVVALANGLQKKDALVSALNAGLIDVIVITDRMAEYILQKND,failed
11,MKLSSEKLPKNPFSLSQYAAKQQKFFQWKKEKPDYYLHANLVDTALQFLKERIRRGDAMAYFLRGQLYFEEGWYEEALAQFEEIQEKDHQAIYQLGVMYYDGLGTIANAEKGVNYMRKILDSSCPQTMHLKFAAAYNLGRAYFEGKGVKRSDEEAERLWLLAADNGNPKASVKAQSILGLFYSMKEPKELEKAFFWHSEACGNGSLESQGALGLMYFYGQGIRQDTDAALHCLREAAERGNVYAQGTLVEYYYKMKFFTKCVSFSKRIADYDEVHDIPMIAHVTDCLPEFIIKGMAMAAFYHGRCLQLGLGIMKDEESAKHYYSKACRLNPTLADELHSLLIHQRI,failed
12,MKMDYKEQSHIIPTYKRFDIVLEKGQGVYLFDDKAKKYLDFSSGIGVCALGYNHAKFNAKIKAQVDKLLHTSNLYYNENIAAAAKNLAKASALERVFFTNSGTESIEGAMKTARKYAFNKGVKGGQFIAFKHSFHGRTLGALSLTANEKYQKPFKPLISGVKFAKYNDISSVEKLVNEKTCAIILESVQGEGGINPANKDFYKALRKLCDEKDILLIADEIQCGMGRSGKFFAYEHAQILPDIMTSAKALGCGLSVGAFVINQKVASNSLEAGDHGSTYGGNPLVCAGVNAVFEIFKEEKILENVNKLTPYLEQSLDELINEFDFCKKRKGLGFMQGLSLDKSVKVAKVIQKCQENALLLISCGENDLRFLPPLILQKEHIDEMSEKLRKALKSF,not failed
13,MGACMKPIGSDGKPIPTPPSLLSFWEVVGVYGRLGLWLGALFIGAVGIFILMDQPPFVQMDWSGLVQQVAAVVALIAIVIPALQVFFALTNRASGSLRPGRYGRLFERRFARFTPQQIEDILQDARAILATMSDSPKRRAWARWVEWLEQRSNLPLAERSGLKIGVYHPRRSKLWIDGAGVALVGALGSWLIWDQRSWMGWAFLGVLGSLFTWGLLATLTERLELSDDSLSYYAFRRQQWSVPRQHVALREAGSSEYQIYDVRTGRLLGEVKGETFGADIVEALADLFPPWLGDEVG,failed
14,MIGITGVTGKLGSKVAQLISEQGISARHLARNPQRAALYDNAELVQVAFENSLEAVEALKGIDVLLMVSASESPNRLQQHFAFLDAAHEAGVKHIVYTSFYNAATEATFTLARDHAKTEKYIKERGFTYTFLRDNFYLDFFLDLCLNNGEIRGPAGNGKVSAVARQDVSEVATTILAKPDKWKNQLLNMTGPADLSMADIVHFVSEQKGEIIPYIDESIEEAYASRKAWPAQDWEYDAWVSTYTAIKEGKQAGVSSDIERVLGRPATSLEQLVKTIK,failed
15,MDGATLAEVMRQRGINMRYLGKVLDLVLRSPARDQLDHIYKIGIGELITRSAKHIFKTYLQGVELSGLSAAISHFLNCFLSSYPNPVAHLPADELLSKKRNKRRKNRPPGAADNTAWAVMTPQELWKNICHEAKNYFDFTLECDSVDQAVETYGLQKITLLREISLKTGIQILLKEYSFDSRHKPAFTEEDVLNIFPVVKHVNPKASDAFHFFQSGQAKVQQGFLKEGCELINEALNLFNNVYGAMHVEICACLRLLARLHYIMGDYAEALSNQQKAVLMSERVMGIEHPNTIQEYMHLALYCFASSQLSTALSLLYRARYLMLLVFGEDHPEMALLDNNIGLVLHGVMEYDLSLRFLENALAVTTKYHGPKALKVALSHHLVARVYESKAEFRSALQHEKEGYTIYKTQLGEDHEKTKESSEYLKCLTQQAVALQRTMNEIYRNGSSANIPPLKFTAPSMTSVLEQLNVINGILFIPLSQKDLENLKAEVARRHQLQEANRNRDKAEEQPMAPEPEPEPEPERAVEDMGSPQTAKEGPSSLNLQG,failed
16,MEELQYFPYEKFRPNQREFIEIVKEAVKRGENLIVEAPTGFGKTISVLAGVLPYAISLGYKVVYLARTHKQMDRVIEELRKIGEKSEVSGIEFRSRKDLCLHAYIQTFAQDAYTSMIVCKSLRKLGKCKYYENLKEKRDRVDEIVKFFLSFPPFPREVIEYSELLELCPYEITKKVGEKANVVVASYLYMISPPIRQAFLENLGVDYSDLIVIFDEAHNLPDQAISALSDRLSVRSIERAIKEAEEYGEKDIENFLSILLRGLEILYKEKLENYESEEIPIRPEEVFLHPASILGWRGRDIGMMLEDMIEVGDAIREDRIERNLPPRSYVGRVGEFLWNWLSLRDREDYLHLFTKEKGLALELVALDPSVALDFLEEVHSAIFMSGTLSPLEAFRDIIGVNARLKKFPRIVKRENAIVLVARDVSTRGIERSPPLYKRIAEYIFEAVKNTPKNVGVFTASYEVLEGVLSTNVHIKIEEEVGKKVFIEKKDAPSRENDEMIREFKEESKGKGAVLFGVMGGRNSEGQDYSGDEMNGVILVGIPYARPTPRVQAQTRYFEKKFPGKGRYYGYILPAHRKLAQAAGRVHRSENEKGSIVILDYRVLWKNVKKDLPDWMVETMIPVTLPTLRIKLRRFWRERLNE,failed
17,MTAALSSNFLLVAFFLYLAATIFYAVSIMGKKWRNKEGEMKGNRWGTFGYYSAIIALLFALGYFITRWMVAGFAPVSNMFEYVTFFGICIGLAFVIINAIYRSNILGLFTMPTVMLMIAYASVFPSEVAPLIPALQSNWLALHVTTVALGQGILAVSFASGLVYLIRTIDYSIQSWKTFWLEFILYSVITVVGFILITYTFQAMNYEAKFNYVNENDVEATMEYHLPPIVGPHEGQLISETGNQPLVNMPAWIKSDQLNTVIWSFLVGLVLYLLLYLVFRKPVGAILQPIVKRVSPQLVDEISYRAIAIGFPVFTLGGLIFAMIWAQIAWTRFWGWDPKEVWALITFLFYAAYLHLRLSKGWHGERSAWLCVIGFAIIMFNLVFVNLVIAGLHSYAGGM,failed
18,MSPLALLFLTLFNSVLGLSILFPILGPLGRALGLTEVQVGLFSTGYALMQFLLSPYWGRRSERGRKPVLLVGILGFAASFLLFGVFALLGERGLVPPGLLFFLLLLARLLGGAFSSATLPTAQAYVADVTGRENRTAGMALLGAAFGLAVILGPALGAGLAALFGLLAPVFFSAGIALLNALFVYLVLPESRPRGQEAGARLSPFDPRVFPLLLLGLALNLSSVALEQTIAFYFQDRLLLGGVETAQKVGLALVLYGVVAVFVQGVLVRKTGWPPRVLLSLGLPLGILGFVLLVYAKTFWALALGLALQGAGQGLALPGVTAALSLAVGEGEQGLVAGLNSSAQALGRMLGPIVGTGLYRLAPEGPYVLGASLLLLALLFLPALFRRARL,failed
